Measurements: patent publication US20220073643A1 (NANJING GENSCRIPT BIOTECH, published 2022)
Several values for one entry are separate records, joined by “and”; a condition that tells them apart may be missing. Equal values may be shown once. Read-outs that look alike come from different tables or passages of the source.

How the values were obtained:
human Claudin18.2 [1] = target: human Claudin18.2 (human); assay: cell-based or functional assay
human Claudin18.2 [2] = target: T1, human Claudin18.2 (human); assay: FACS, Claudin18.2-HEK293 cells
T1 construct: also called CLDN18.2
Protocol: (§1) The binding of chimeric antibodies to Claudin18.2 expressed on HEK293 cells was determine by FACS analysis. Briefly, HEK293 cells expressing human Claudin18.2 as prepared in the foregoing Example were harvested and incubated with anti-Claudin18.2 mAbs at 4° C. for 40 min, followed by fluorophore (iFluor 647)-labeled goat […] IgG (H+L) secondary antibodies at 4° C. for 0.5 hour. The samples were then analyzed by flow cytometry.

human Claudin18.2 [3] = target: T1, human Claudin18.2; assay: FACS, Claudin18.2-HEK293 cells; remark: listed apart in the source
Protocol: as §1

human Claudin18.2 [4] = target: T1, human Claudin18.2; assay: cell-based or functional assay; remark: listed apart in the source
human Claudin18.2 [5] = target: T1, human Claudin18.2; assay: FACS, Claudin18.2-HEK293 cells; remark: listed apart in the source

CDC EC50 (human Claudin18.2 [1]) | EC50 (human Claudin18.2 [2]) [pM] | EC50 (human Claudin18.2 [3]) [pM] | CDC % Relative activity (human Claudin18.2 [1]) [%] | ADCC % Relative activity (human Claudin18.2 [4]) [%] | ADCC EC50 (human Claudin18.2 [4]) [µg/mL] | EC50 (human Claudin18.2 [5]) [µg/mL] | Span (human Claudin18.2 [5]) | Binder
2.7 µg/mL and 2.3 µg/mL and 2.12 µg/mL | 596 | 517 |  |  |  |  |  | IMAB362 analog (Claudiximab, Zolbetuximab) (antibody, V domains shown, in-house prepared analog; chimeric IgG1) VH: QVQLQQPGAELVRPGASVKLSCKASGYTFTSYWINWVKQRPGQGLEWIGNIYPSDSYTNYNQKFKDKATLTVDKSSSTAYMQLSSPTSEDSAVYYCTRSWRGNSFDYWGQGTTLTVSS VL: DIVMTQSPSSLTVTAGEKVTMSCKSSQSLLNSGNQKNYLTWYQQKPGQPPKLLIYWASTRESGVPDRFTGSGSGTDFTLTISSVQAEDLAVYYCQNDYSYPFTFGSGTKLEIK
0.106 µg/mL |  | 1230 | 2000 | 332 | 0.00794 |  |  | chimeric 419B5G9 (antibody, human IgG1, kappa, V domains shown, chimeric, human IgG1/kappa constant regions) VH: DVQLVESGGGLVQPGGSRKLSCAASGFTFSTFGMHWVRQAPEKGLEWVAYISGGSTTIFYADTVKGRFTISRDNPKNTLFLQMTSVRSEDTAMYYCARFYYGNSFAYWGPGTLVTVST VL: DIVMTQSPSSLTVTAGEKVTMSCKSSQSLLNSGNQKNYLTWYQQKPGQPPKMLIYWASTRESGVPDRFTGSGSGTDFTLTISSVQAEDLAVYYCQNAYSYPLTFGAGTKLELKR

Further lines, the binder ahead of its results:

Binder | CDC EC50 (human Claudin18.2 [1]) | EC50 (human Claudin18.2 [2]) [pM] | EC50 (human Claudin18.2 [3]) [pM] | CDC % Relative activity (human Claudin18.2 [1]) [%] | ADCC % Relative activity (human Claudin18.2 [4]) [%] | ADCC EC50 (human Claudin18.2 [4]) [µg/mL] | EC50 (human Claudin18.2 [5]) [µg/mL] | Span (human Claudin18.2 [5])
chimeric 410H6H3 (antibody, human IgG1, kappa, V domains shown, chimeric, human IgG1/kappa constant regions; also called 410H6H3-Chimeric) VH: DVLLVESGGGLVQPGGSRKLSCAASGFTFSSSGMHWVRQAPEKGLEWVAYISSGSNTIYYADTLKGRFTISRDNPKNTLFLQMTSLRSEDTAMYYCARIYYGNSFVYWGQGTLVTVSA VL: DIVMTQSPSSLTVTAGEKVIMSCKSSQSLLNSGNQKNYLTWYQQKPGQPPKMLIYWASTRESGVPDRFRGSGSGTDFTLTISSVQAEDLAVYYCQNNYYYPLTFGTGTKLALKR | 0.0756 µg/mL |  | 778 | 2810 | 677 | 0.0039 | 0.843 | 79100
chimeric 412B6E4 (antibody, human IgG1, kappa, V domains shown, chimeric, human IgG1/kappa constant regions; also called 412B6E4-Chimeric) VH: DVQLVESGGGLVQPGGSRKLSCAASGFTFSSFGVHWVRQAPEKGLEWVAYISSGSSTIYYAHSVKGRFTISRDNPKNTLFLQMTSLGSEDTATYYCARFYYGNSFAYWGQGTLVTVSA VL: DIVMTQSPSSLTVTAGEKVTMSCKSSQSLLNSGNQKNYLTWYQQKPGQPPKMLIYWASTRESGVPDRFTGSGSGTDFTLTISSVQAEDLAVYYCQNAYTYPLTFGAGTRLELKR | 0.105 µg/mL |  | 677 | 2020 | 535 | 0.00494 | 0.555 | 87900
